According to the supplement of paper PMC7125110:
± gives the standard error. This sample holds only a part of the variants without activity.

B1: glmS ribozyme (parent)
chain: AUAAAAGCGCCAGAACUACAGAAAUGUAGUUGACGAGGAGGAGGUUUAUCGAAUUUUCGGCGGAUGCCUCCAAA

Legend:
Conditions in all cases: with glucosamine-6-phosphate
glucosamine-6-phosphate [1] = variants of: B1; test: self-cleavage kobs at 40 uM GlcN6P; higher = faster cleavage; RNA array
Summary of the method: (§1)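 Tiles of sequenced MiSeq chips were imaged over ~14 h at 37 °C. On them, barcoded ribozyme variants had been transcribed in situ by E. coli RNA polymerase and were tracked via a hybridised Cy3 probe while glucosamine-6-phosphate (40 μM to 10 mM) in HEPES/KCl/Mg(OAc)2 buffer flowed in. Per-tile medians, normalised to baseline and to non-cleaving reference variants, were fit to one- or two-exponential decays for kobs, and weighted Michaelis–Menten fits gave kcat and KM.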

glucosamine-6-phosphate [2] = variants of: B1; test: self-cleavage kobs at 160 uM GlcN6P; higher = faster cleavage; RNA array
Summary of the method: as §1

glucosamine-6-phosphate [3] = variants of: B1; test: self-cleavage kobs at 640 uM GlcN6P; higher = faster cleavage; RNA array
Summary of the method: as §1

glucosamine-6-phosphate [4] = variants of: B1; test: self-cleavage kobs at 2500 uM GlcN6P; higher = faster cleavage; RNA array
Summary of the method: as §1

glucosamine-6-phosphate [5] = variants of: B1; test: self-cleavage kobs at 10000 uM GlcN6P; higher = faster cleavage; RNA array
Summary of the method: as §1

Variant | self-cleavage kobs at 40 uM GlcN6P (glucosamine-6-phosphate [1]) | self-cleavage kobs at 160 uM GlcN6P (glucosamine-6-phosphate [2]) | self-cleavage kobs at 640 uM GlcN6P (glucosamine-6-phosphate [3]) | self-cleavage kobs at 2500 uM GlcN6P (glucosamine-6-phosphate [4]) | self-cleavage kobs at 10000 uM GlcN6P (glucosamine-6-phosphate [5])
AUAAAAGCGCCAGAACUACAGAAAUGUAGAUGAUGAGGAGGAGGUUUAUCGAAUUUUCGGCGGAUGCCUCCAAA [U30A C34U] | < 1e-05 s⁻¹ | < 1e-05 s⁻¹ | < 1e-05 s⁻¹ | < 1e-05 s⁻¹ | –
AUAAAAGGGCCAGAACUACAGAAAUGUAGUUGAAGAGGAGGAGGUUUAUCGAAUUUUCGGCGGAUGCCUCCAAA [C8G C34A] | < 1e-05 s⁻¹ | < 1e-05 s⁻¹ | – | < 1e-05 s⁻¹ | < 1e-05 s⁻¹
AUAAAAGCGCCAGAACUACAGAAAUGUAAUUGACGAGGAGGAGGUUUAUCGAAUUCUCAGCGGAUGCCUCAAAA [G29A U56C G59A C71A] | < 1e-05 s⁻¹ | – | – | – | < 1e-05 s⁻¹
AUAAAAGAGACAGAACUACAGAAAUGUAGUUGACGAGGAGGAGGUUUAUCGAAUUUUCGGCGGAUGCCUCCAAA [C8A C10A] | < 1e-05 s⁻¹ | < 1e-05 s⁻¹ | < 1e-05 s⁻¹ | – | –
AUAAACGCGCCAGAACUACAGAAAUGUAGUUGACGAGGAGGAGGUUUAUCGAAUUUUCGGCAGAUCCCACCAAA [A6C G62A G66C U69A] | < 1e-05 s⁻¹ | – | – | – | < 1e-05 s⁻¹
AUAAAAGGGCCAGAACUACAGAAAUGUAGUUGACGAGGAGUAGGUUUAUCGAAUUUUCGGUGGAUGCCUCCAAA [C8G G41U C61U] | < 1e-05 s⁻¹ | < 1e-05 s⁻¹ | – | – | < 1e-05 s⁻¹
AUAAAAGCGCCAGGUCUACAGAAAUGUAGUUGACGAGGAGGAGGUUUAUCGAAUUUUCGGCGGAUGCCUCCAAA [A14G A15U] | 0.00111 ± 0.00019 s⁻¹ | 0.000722 ± 0.00014 s⁻¹ | 0.00751 ± 0.0013 s⁻¹ | 0.00555 ± 0.0014 s⁻¹ | 0.0592 ± 0.021 s⁻¹
AUAAAAGCCCCAGAACUACAGAAAUGUAGUUGACGAGGGUGAGGUUUACCGAAUUUUCGGCGGAUGCCUCCAAA [G9C A39G G40U U49C] | < 1e-05 s⁻¹ | – | – | – | < 1e-05 s⁻¹
AUAAAACCGCCAGAAGUACAGAAAUGUAGUUGACGAGGAGGAGGUUUAUCGGAUUUUCGGCGGAUGCCUCCAAA [G7C C16G A52G] | < 1e-05 s⁻¹ | – | < 1e-05 s⁻¹ | – | < 1e-05 s⁻¹
AUAAAAGCGCCAAAGGUACAGAAAUGUAGUUUACGAGGAGGCGGUAUAUCGAAUUUACGGCGGAUGCUUCCAAA [G13A A15G C16G G32U A42C U46A U57A C68U] | < 1e-05 s⁻¹ | – | – | – | –
AUAAAAGCGCCAGAACUACAGAAAUGUAGUUGACGAGGAGGAGGUUUAUGGAAUUUUCGCCGGAUGUCUCCAAA [C50G G60C C67U] | 6.17e-05 ± 1.7e-05 s⁻¹ | – | 0.000438 ± 0.00012 s⁻¹ | 0.000124 ± 3.4e-05 s⁻¹ | 4.29e-05 ± 1.2e-05 s⁻¹
AUAAAAGCGCCAGAACUACAGAAAUGUAGUUGACGAGGAGGAGGGUUAUAGAAUUUUCGGCGGAGGCCUCCAAA [U45G C50A U65G] | < 1e-05 s⁻¹ | – | < 1e-05 s⁻¹ | – | –
AUAAAAGCGCCAGAACUACAGAAAUGUAGUUGACGGGGAGGAGGUUUAUCGAAUUUUCGUCGGAUUCCUCCAAA [A36G G60U G66U] | < 1e-05 s⁻¹ | – | < 1e-05 s⁻¹ | < 1e-05 s⁻¹ | < 1e-05 s⁻¹
